Experimental data: article PMC4195775 (The EMBO Journal, 2014)
Ends that are not written are not given here.

B1: GST-NT (recombinant GST-fused girdin NT) (domain or fragment, human, UniProt Q3V6T2 1-256, looked up)
chain: MENEIFTPLLEQFMTSPLVTWVKTFGPLAAGNGTNLDEYVALVDGVFLNQVMLQINPKLESQRVNKKVNNDASLRMHNLSILVRQIKFYYQETLQQLIMMSLPNVLIIGKNPFSEQGTEEVKKLLLLLLGCAVQCQKKEEFIERIQGLDFDTKAAVAAHIQEVTHNQENVFDLQWMEVTDMSQEDIEPLLKNMALHLKRLIDERDEHSETIIELSEERDGLHFLPHASSSAQSPCGSPGMKRTESRQHLSVELADA

Assays:
[1] = biological target: EGFRc-His (EGFR cytoplasmic domain, 669-1210) (UniProt P00533 669-1210); test: pull-down
[2] = biological target: B1; test: in vitro binding assay

| binding result [1] | binding result [2] | Binder |
| --- | --- | --- |
| binds |  | B1 |
|  | binds | KLLMIIHDRREFAKFEKEKMNAKWDTGENPIYKSAVTTVVNPKYEGK (domain or fragment, UniProt P05556 752-798, looked up, also: His tag, position and length not given here) [ITGB1c-His (integrin β1 cytoplasmic domain, 752-798)] |
